From article doi:10.1101/2022.02.11.480038

Key:
[1] = biological target: GABARAP Y5F H9A mutant (human) (UniProt O95166); experiment: ITC
[2] = biological target: GABARAP K48A mutant (human) (UniProt O95166); experiment: ITC

Substance: phosphorylated TEX264 LIR (residues 269-278 with p-S271,p-S272) (peptide)
- Kd [1]: 2000 nM
- Kd [2]: 2000 nM
